Measurements as given in the supplement of paper PMC10065799, “High-throughput profiling of sequence recognition by tyrosine kinases and SH2 domains using bacterial peptide display” (eLife, 2023).
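Further: 11-residue human phosphosite peptides and single-mutation variants displayed on the E. coli surface, counted by deep sequencing, each peptide's frequency after selection divided by its frequency in the unselected input library; frequency after pTyr selection over input frequency; kinase dosed for 20-30% of maximal phosphorylation in three min.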

What follows are sequences tested against Hck (UniProt P08631) (assay: phosphorylation enrichment, bacterial display (enrichment ratio); higher = better substrate or ligand; peptides without Tyr show the background).
Sequence of Hck (P08631 whole entry, looked up): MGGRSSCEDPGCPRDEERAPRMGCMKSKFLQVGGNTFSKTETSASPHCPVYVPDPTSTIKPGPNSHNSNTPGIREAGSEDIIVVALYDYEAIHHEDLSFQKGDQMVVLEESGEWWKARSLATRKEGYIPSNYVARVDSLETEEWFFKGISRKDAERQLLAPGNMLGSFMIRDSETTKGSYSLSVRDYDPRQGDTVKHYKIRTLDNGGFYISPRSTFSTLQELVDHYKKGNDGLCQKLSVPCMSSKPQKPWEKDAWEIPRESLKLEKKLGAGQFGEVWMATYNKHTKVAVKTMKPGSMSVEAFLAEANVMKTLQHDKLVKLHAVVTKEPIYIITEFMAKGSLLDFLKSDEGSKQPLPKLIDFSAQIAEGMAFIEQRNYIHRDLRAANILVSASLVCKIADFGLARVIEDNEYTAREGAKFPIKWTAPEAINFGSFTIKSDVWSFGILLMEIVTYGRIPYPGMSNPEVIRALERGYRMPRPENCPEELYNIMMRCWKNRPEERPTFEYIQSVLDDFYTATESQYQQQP
RPPFTYATLIR [FOXP3_Y342] gave a phosphorylation enrichment of 2.58. In the case of ICFSDYVEVAD [PHACTR1_Y525_R521C], the phosphorylation enrichment is reported as 0.698. Sequence NGSKGYAYVHF [PABPC5_Y147] has a phosphorylation enrichment of 0.499. With KENITYMKREQ [L1TD1_Y24] the phosphorylation enrichment was 0.554. Work on KFFRVYQGQQP [MUTYH_Y494_V490F] yielded a phosphorylation enrichment of 0.495. With SSVKLYRVFCD [FGB_Y266_P265L_YF] the phosphorylation enrichment was 0.514. In the case of ELCSEYHKSRK [SPINK5_Y440_R441H], the phosphorylation enrichment is reported as 0.442. HRNGMYGLHQD [SGSH_Y89_Q85R] showed a phosphorylation enrichment of 0.294. Sequence QEMMEYRRQIQ [DES_Y324_H326R] has a phosphorylation enrichment of 0.355. Sequence LTAEVYFPSIK [C5orf64_Y60] has a phosphorylation enrichment of 1.06. KNAEKYAEEDW [HSPA9_Y568_R573W] showed a phosphorylation enrichment of 0.52. GEDEPYSEPFA [APBA1_Y183_YF] gave a phosphorylation enrichment of 0.599. VKMLEYRGKDV [CASP5_Y74_L75R] gave a phosphorylation enrichment of 0.46. Sequence SVVVPSEPPEV [TP53_Y220_Y220S] has a phosphorylation enrichment of 0.484. With DYLEKYYKFGS [NNMT_Y24] the phosphorylation enrichment was 0.402. Work on NTGFFYDLFGG [PTPN11_Y63_D61Y_YF] yielded a phosphorylation enrichment of 1.52. With TVSSDYLHPQY [CCPG1_Y569_F566S] the phosphorylation enrichment was 0.407. Sequence EYQLPYYNTVP [BMPR1A_Y457_M460T] has a phosphorylation enrichment of 1.93. Sequence QNKEDYAGLKE [GSTO1_Y139] has a phosphorylation enrichment of 0.82. ERDTVYSSSGV [NELL2_Y350_N347D] gave a phosphorylation enrichment of 1.5. With MDDDQYALLTA [EFCAB6_Y675_T680A] the phosphorylation enrichment was 0.77. For GYQPEYGQPAG [SYP_Y278_D277E], the phosphorylation enrichment was 0.419. Work on CENNRYGMGTS [PDHA1_Y227] yielded a phosphorylation enrichment of 0.555. Sequence TLNFCYQQVKS [PTK2_Y148_F147C] has a phosphorylation enrichment of 0.52. With RRNTPYSQTMK [TET2_Y819_S817T] the phosphorylation enrichment was 0.367. In the case of TFVVLYDAELT [ERCC4_Y581_R576T_YF], the phosphorylation enrichment is reported as 0.568. In the case of ANFTEYVATRW [CDKL5_Y171_YF], the phosphorylation enrichment is reported as 0.523. TFRPPYFHRDC [HGD_Y333_N337D_YF] was tested, and the phosphorylation enrichment was 0.454. Sequence PQDVTYAQLHS [LILRB4_Y412] has a phosphorylation enrichment of 6.52. RIAFQYGDTDL [MYBPC3_Y340_V342D] showed a phosphorylation enrichment of 0.432. Work on CTTIHYNFMSN [TP53_Y234_C238S_YF] yielded a phosphorylation enrichment of 0.545. In the case of LMLVLYGRIFR [HTR1A_Y215], the phosphorylation enrichment is reported as 0.495. For AKKKMYSCKTK [AGXT_Y231_R233C], the phosphorylation enrichment was 0.537.

Each sequence was assayed against Jak2 (UniProt O60674) in the same assay as above.
Sequence of Jak2 (O60674 whole entry, looked up): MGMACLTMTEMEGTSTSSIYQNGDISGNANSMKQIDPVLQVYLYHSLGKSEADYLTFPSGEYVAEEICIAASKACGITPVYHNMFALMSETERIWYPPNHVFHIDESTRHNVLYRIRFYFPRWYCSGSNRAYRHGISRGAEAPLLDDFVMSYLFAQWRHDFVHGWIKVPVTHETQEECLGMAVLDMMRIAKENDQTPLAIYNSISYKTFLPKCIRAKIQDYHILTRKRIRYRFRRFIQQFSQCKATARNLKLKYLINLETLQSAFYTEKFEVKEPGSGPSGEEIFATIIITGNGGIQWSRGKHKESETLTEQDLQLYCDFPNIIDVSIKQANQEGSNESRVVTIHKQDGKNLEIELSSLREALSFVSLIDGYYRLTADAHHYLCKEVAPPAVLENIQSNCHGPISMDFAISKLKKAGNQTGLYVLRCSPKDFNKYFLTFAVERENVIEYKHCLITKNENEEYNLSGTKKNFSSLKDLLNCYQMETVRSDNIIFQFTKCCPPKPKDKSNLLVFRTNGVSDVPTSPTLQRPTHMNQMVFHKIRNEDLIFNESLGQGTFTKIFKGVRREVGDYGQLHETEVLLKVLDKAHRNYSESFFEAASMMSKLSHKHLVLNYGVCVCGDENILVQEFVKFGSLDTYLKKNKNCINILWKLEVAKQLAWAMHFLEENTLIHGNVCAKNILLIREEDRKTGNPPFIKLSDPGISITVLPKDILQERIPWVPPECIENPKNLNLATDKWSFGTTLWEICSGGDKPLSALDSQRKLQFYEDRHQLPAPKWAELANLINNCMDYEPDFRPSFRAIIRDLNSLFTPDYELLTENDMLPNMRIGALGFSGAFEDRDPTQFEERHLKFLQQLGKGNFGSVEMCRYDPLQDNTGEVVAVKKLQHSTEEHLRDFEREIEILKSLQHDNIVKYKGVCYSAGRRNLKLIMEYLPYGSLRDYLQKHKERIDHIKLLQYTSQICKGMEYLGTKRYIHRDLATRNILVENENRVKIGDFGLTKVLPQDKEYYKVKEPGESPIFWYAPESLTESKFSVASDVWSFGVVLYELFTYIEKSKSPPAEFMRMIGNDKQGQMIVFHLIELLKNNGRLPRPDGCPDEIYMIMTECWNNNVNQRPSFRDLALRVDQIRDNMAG
RPPFTYATLIR [FOXP3_Y342] was tested, and the phosphorylation enrichment was 1.29. Sequence ICFSDYVEVAD [PHACTR1_Y525_R521C] has a phosphorylation enrichment of 1.28. For NGSKGYAYVHF [PABPC5_Y147], the phosphorylation enrichment was 0.961. KENITYMKREQ [L1TD1_Y24] was tested, and the phosphorylation enrichment was 0.828. Work on KFFRVYQGQQP [MUTYH_Y494_V490F] yielded a phosphorylation enrichment of 0.627. SSVKLYRVFCD [FGB_Y266_P265L_YF] was tested, and the phosphorylation enrichment was 0.935. Work on ELCSEYHKSRK [SPINK5_Y440_R441H] yielded a phosphorylation enrichment of 0.945. Work on HRNGMYGLHQD [SGSH_Y89_Q85R] yielded a phosphorylation enrichment of 0.626. For QEMMEYRRQIQ [DES_Y324_H326R], the phosphorylation enrichment was 1.18. LTAEVYFPSIK [C5orf64_Y60] showed a phosphorylation enrichment of 0.996. Sequence KNAEKYAEEDW [HSPA9_Y568_R573W] has a phosphorylation enrichment of 1.21. Work on GEDEPYSEPFA [APBA1_Y183_YF] yielded a phosphorylation enrichment of 1.02. VKMLEYRGKDV [CASP5_Y74_L75R] showed a phosphorylation enrichment of 0.792. SVVVPSEPPEV [TP53_Y220_Y220S] was tested, and the phosphorylation enrichment was 0.851. Work on DYLEKYYKFGS [NNMT_Y24] yielded a phosphorylation enrichment of 0.791. NTGFFYDLFGG [PTPN11_Y63_D61Y_YF] gave a phosphorylation enrichment of 1.19. With TVSSDYLHPQY [CCPG1_Y569_F566S] the phosphorylation enrichment was 0.536. Work on EYQLPYYNTVP [BMPR1A_Y457_M460T] yielded a phosphorylation enrichment of 5.82. In the case of QNKEDYAGLKE [GSTO1_Y139], the phosphorylation enrichment is reported as 1.24. In the case of ERDTVYSSSGV [NELL2_Y350_N347D], the phosphorylation enrichment is reported as 0.601. For MDDDQYALLTA [EFCAB6_Y675_T680A], the phosphorylation enrichment was 1.15. GYQPEYGQPAG [SYP_Y278_D277E] was tested, and the phosphorylation enrichment was 0.725. Work on CENNRYGMGTS [PDHA1_Y227] yielded a phosphorylation enrichment of 0.999. In the case of TLNFCYQQVKS [PTK2_Y148_F147C], the phosphorylation enrichment is reported as 1.07. Sequence RRNTPYSQTMK [TET2_Y819_S817T] has a phosphorylation enrichment of 0.708. TFVVLYDAELT [ERCC4_Y581_R576T_YF] gave a phosphorylation enrichment of 1.49. For ANFTEYVATRW [CDKL5_Y171_YF], the phosphorylation enrichment was 0.781. Work on TFRPPYFHRDC [HGD_Y333_N337D_YF] yielded a phosphorylation enrichment of 0.685. With PQDVTYAQLHS [LILRB4_Y412] the phosphorylation enrichment was 0.786. RIAFQYGDTDL [MYBPC3_Y340_V342D] showed a phosphorylation enrichment of 0.784. For CTTIHYNFMSN [TP53_Y234_C238S_YF], the phosphorylation enrichment was 1.07. In the case of LMLVLYGRIFR [HTR1A_Y215], the phosphorylation enrichment is reported as 1.48. With AKKKMYSCKTK [AGXT_Y231_R233C] the phosphorylation enrichment was 2.73.

Each sequence was assayed against MERTK (UniProt Q12866) in the same assay as above.
Sequence of MERTK (Q12866 whole entry, looked up): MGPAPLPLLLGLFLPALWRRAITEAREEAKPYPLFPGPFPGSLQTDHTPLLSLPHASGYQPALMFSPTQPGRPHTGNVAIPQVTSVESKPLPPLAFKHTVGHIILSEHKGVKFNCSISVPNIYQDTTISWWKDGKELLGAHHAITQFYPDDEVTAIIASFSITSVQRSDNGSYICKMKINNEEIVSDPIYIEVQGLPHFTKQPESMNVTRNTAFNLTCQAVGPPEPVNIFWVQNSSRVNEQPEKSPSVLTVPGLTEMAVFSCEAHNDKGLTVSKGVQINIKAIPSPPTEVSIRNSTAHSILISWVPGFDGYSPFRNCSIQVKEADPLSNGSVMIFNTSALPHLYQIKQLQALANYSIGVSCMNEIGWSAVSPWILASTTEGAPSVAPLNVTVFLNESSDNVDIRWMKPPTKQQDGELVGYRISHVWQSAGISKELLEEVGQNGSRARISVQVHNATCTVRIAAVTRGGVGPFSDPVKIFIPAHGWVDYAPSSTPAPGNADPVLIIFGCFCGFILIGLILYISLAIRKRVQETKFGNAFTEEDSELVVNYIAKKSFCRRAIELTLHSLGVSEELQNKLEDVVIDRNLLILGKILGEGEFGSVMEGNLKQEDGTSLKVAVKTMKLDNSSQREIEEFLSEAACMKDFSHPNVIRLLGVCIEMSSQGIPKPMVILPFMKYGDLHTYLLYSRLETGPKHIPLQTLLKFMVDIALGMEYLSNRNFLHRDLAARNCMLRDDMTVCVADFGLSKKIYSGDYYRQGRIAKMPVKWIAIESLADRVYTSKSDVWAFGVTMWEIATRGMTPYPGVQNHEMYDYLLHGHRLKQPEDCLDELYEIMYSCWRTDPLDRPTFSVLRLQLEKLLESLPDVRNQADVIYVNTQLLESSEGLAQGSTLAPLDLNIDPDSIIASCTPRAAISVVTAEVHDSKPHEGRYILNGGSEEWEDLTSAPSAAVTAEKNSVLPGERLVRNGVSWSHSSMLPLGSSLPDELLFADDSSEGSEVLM
For RPPFTYATLIR [FOXP3_Y342], the phosphorylation enrichment was 1.01. For ICFSDYVEVAD [PHACTR1_Y525_R521C], the phosphorylation enrichment was 0.459. NGSKGYAYVHF [PABPC5_Y147] was tested, and the phosphorylation enrichment was 0.519. Sequence KENITYMKREQ [L1TD1_Y24] has a phosphorylation enrichment of 0.453. KFFRVYQGQQP [MUTYH_Y494_V490F] was tested, and the phosphorylation enrichment was 0.447. Work on SSVKLYRVFCD [FGB_Y266_P265L_YF] yielded a phosphorylation enrichment of 0.41. Sequence ELCSEYHKSRK [SPINK5_Y440_R441H] has a phosphorylation enrichment of 0.532. Work on HRNGMYGLHQD [SGSH_Y89_Q85R] yielded a phosphorylation enrichment of 0.396. QEMMEYRRQIQ [DES_Y324_H326R] was tested, and the phosphorylation enrichment was 0.455. LTAEVYFPSIK [C5orf64_Y60] was tested, and the phosphorylation enrichment was 0.648. Work on KNAEKYAEEDW [HSPA9_Y568_R573W] yielded a phosphorylation enrichment of 0.533. GEDEPYSEPFA [APBA1_Y183_YF] showed a phosphorylation enrichment of 0.493. VKMLEYRGKDV [CASP5_Y74_L75R] was tested, and the phosphorylation enrichment was 0.443. SVVVPSEPPEV [TP53_Y220_Y220S] showed a phosphorylation enrichment of 0.431. Work on DYLEKYYKFGS [NNMT_Y24] yielded a phosphorylation enrichment of 0.494. In the case of NTGFFYDLFGG [PTPN11_Y63_D61Y_YF], the phosphorylation enrichment is reported as 3.4. For TVSSDYLHPQY [CCPG1_Y569_F566S], the phosphorylation enrichment was 0.315. For EYQLPYYNTVP [BMPR1A_Y457_M460T], the phosphorylation enrichment was 2.31. QNKEDYAGLKE [GSTO1_Y139] gave a phosphorylation enrichment of 1.09. ERDTVYSSSGV [NELL2_Y350_N347D] gave a phosphorylation enrichment of 0.42. MDDDQYALLTA [EFCAB6_Y675_T680A] was tested, and the phosphorylation enrichment was 0.592. GYQPEYGQPAG [SYP_Y278_D277E] gave a phosphorylation enrichment of 0.467. With CENNRYGMGTS [PDHA1_Y227] the phosphorylation enrichment was 0.397. Sequence TLNFCYQQVKS [PTK2_Y148_F147C] has a phosphorylation enrichment of 0.399. RRNTPYSQTMK [TET2_Y819_S817T] showed a phosphorylation enrichment of 0.503. Work on TFVVLYDAELT [ERCC4_Y581_R576T_YF] yielded a phosphorylation enrichment of 0.724. With ANFTEYVATRW [CDKL5_Y171_YF] the phosphorylation enrichment was 0.49. TFRPPYFHRDC [HGD_Y333_N337D_YF] showed a phosphorylation enrichment of 0.424. With PQDVTYAQLHS [LILRB4_Y412] the phosphorylation enrichment was 0.645. RIAFQYGDTDL [MYBPC3_Y340_V342D] was tested, and the phosphorylation enrichment was 0.544. CTTIHYNFMSN [TP53_Y234_C238S_YF] gave a phosphorylation enrichment of 0.527. With LMLVLYGRIFR [HTR1A_Y215] the phosphorylation enrichment was 0.475. AKKKMYSCKTK [AGXT_Y231_R233C] gave a phosphorylation enrichment of 0.529.

What follows are sequences tested on c-Abl (mouse) in the same assay as above.
RPPFTYATLIR [FOXP3_Y342] showed a phosphorylation enrichment of 0.686. With ICFSDYVEVAD [PHACTR1_Y525_R521C] the phosphorylation enrichment was 0.985. In the case of NGSKGYAYVHF [PABPC5_Y147], the phosphorylation enrichment is reported as 0.707. In the case of KENITYMKREQ [L1TD1_Y24], the phosphorylation enrichment is reported as 0.703. KFFRVYQGQQP [MUTYH_Y494_V490F] was tested, and the phosphorylation enrichment was 0.652. In the case of SSVKLYRVFCD [FGB_Y266_P265L_YF], the phosphorylation enrichment is reported as 0.648. In the case of ELCSEYHKSRK [SPINK5_Y440_R441H], the phosphorylation enrichment is reported as 0.999. HRNGMYGLHQD [SGSH_Y89_Q85R] gave a phosphorylation enrichment of 0.502. In the case of QEMMEYRRQIQ [DES_Y324_H326R], the phosphorylation enrichment is reported as 0.428. For LTAEVYFPSIK [C5orf64_Y60], the phosphorylation enrichment was 1.64. KNAEKYAEEDW [HSPA9_Y568_R573W] was tested, and the phosphorylation enrichment was 0.895. Sequence GEDEPYSEPFA [APBA1_Y183_YF] has a phosphorylation enrichment of 0.598. In the case of VKMLEYRGKDV [CASP5_Y74_L75R], the phosphorylation enrichment is reported as 0.523. SVVVPSEPPEV [TP53_Y220_Y220S] showed a phosphorylation enrichment of 0.74. In the case of DYLEKYYKFGS [NNMT_Y24], the phosphorylation enrichment is reported as 0.458. Work on NTGFFYDLFGG [PTPN11_Y63_D61Y_YF] yielded a phosphorylation enrichment of 0.869. TVSSDYLHPQY [CCPG1_Y569_F566S] showed a phosphorylation enrichment of 0.521. EYQLPYYNTVP [BMPR1A_Y457_M460T] was tested, and the phosphorylation enrichment was 2.54. For QNKEDYAGLKE [GSTO1_Y139], the phosphorylation enrichment was 1.37. In the case of ERDTVYSSSGV [NELL2_Y350_N347D], the phosphorylation enrichment is reported as 0.617. Work on MDDDQYALLTA [EFCAB6_Y675_T680A] yielded a phosphorylation enrichment of 0.871. GYQPEYGQPAG [SYP_Y278_D277E] was tested, and the phosphorylation enrichment was 0.466. CENNRYGMGTS [PDHA1_Y227] showed a phosphorylation enrichment of 0.715. TLNFCYQQVKS [PTK2_Y148_F147C] was tested, and the phosphorylation enrichment was 0.936. With RRNTPYSQTMK [TET2_Y819_S817T] the phosphorylation enrichment was 0.422. For TFVVLYDAELT [ERCC4_Y581_R576T_YF], the phosphorylation enrichment was 0.979. Sequence ANFTEYVATRW [CDKL5_Y171_YF] has a phosphorylation enrichment of 0.682. For TFRPPYFHRDC [HGD_Y333_N337D_YF], the phosphorylation enrichment was 0.587. Sequence PQDVTYAQLHS [LILRB4_Y412] has a phosphorylation enrichment of 0.815. RIAFQYGDTDL [MYBPC3_Y340_V342D] gave a phosphorylation enrichment of 0.735. CTTIHYNFMSN [TP53_Y234_C238S_YF] was tested, and the phosphorylation enrichment was 0.833. In the case of LMLVLYGRIFR [HTR1A_Y215], the phosphorylation enrichment is reported as 0.791. For AKKKMYSCKTK [AGXT_Y231_R233C], the phosphorylation enrichment was 1.95.
